In patent publication US20230390406A1, “Star Polymer Drug Conjugates” (Vaccitech North America, Inc., priority 2020, published 2023):

Tests used:
[1] = small molecule, not polymer-bound; cited from earlier work
[2] = tested on: Compound AI, Ac-A′SPVB-AMC
[3] = tested on: Compound AJ, Ac-A′SK(Ac)VB-AMC
[4] = tested on: Compound AM, Ac-A′VnL-AMC
[5] = tested on: Compound AL, Ac-A′SKSB-AMC
[6] = tested on: Compound AO, Ac-A′SK(Ac)SnL-AMC
[7] = tested on: Compound AK, Ac-A′SK(Ac)SB-AMC
[8] = tested on: Compound AN, Ac-A′SPVnL-AMC
[9] = tested on: Compound AP, Ac-A′SKSnL-AMC

Row | Molecule | pKa [1] | cleavage of the peptide-AMC bond (HPLC, UV 350 nm, up to 6 hrs) (Compound AH, Ac-A′VB-AMC) | cleavage of the peptide-AMC bond (HPLC, UV 350 nm, up to 6 hrs) [2] | cleavage of the peptide-AMC bond (HPLC, UV 350 nm, up to 6 hrs) [3] | cleavage of the peptide-AMC bond (HPLC, UV 350 nm, up to 6 hrs) [4] | cleavage of the peptide-AMC bond (HPLC, UV 350 nm, up to 6 hrs) [5] | cleavage of the peptide-AMC bond (HPLC, UV 350 nm, up to 6 hrs) [6] | cleavage of the peptide-AMC bond (HPLC, UV 350 nm, up to 6 hrs) [7] | cleavage of the peptide-AMC bond (HPLC, UV 350 nm, up to 6 hrs) [8] | cleavage of the peptide-AMC bond (HPLC, UV 350 nm, up to 6 hrs) [9]
1 | CC(C)(CCN)C(=O)O [DMBA, 4-amino-2,2-dimethylbutanoic acid] | about 4.8 | – | – | – | – | – | – | – | – | –
2 | cathepsin B (Sino Biological, protein human recombinant) | – | found to be metabolized quickly in the presence of cathepsin B as well as mouse plasma | found to be metabolized quickly in the presence of cathepsin B as well as mouse plasma | Compound AJ was relatively stable in both matrices | found to be metabolized quickly in the presence of cathepsin B as well as mouse plasma | showed significant stability in mouse plasma, but were readily cleaved in the presence of human cathepsin | showed significant stability in mouse plasma, but were readily cleaved in the presence of human cathepsin | showed significant stability in mouse plasma, but were readily cleaved in the presence of human cathepsin | found to be metabolized quickly in the presence of cathepsin B as well as mouse plasma | showed significant stability in mouse plasma, but were readily cleaved in the presence of human cathepsin
